T1: Avi/His-HuIL18BPa (recombinant human IL-18BP isoform A with Avi and poly-His tags) (human, biotinylated with BirA on the Avi tag in some assays)
T1 chain: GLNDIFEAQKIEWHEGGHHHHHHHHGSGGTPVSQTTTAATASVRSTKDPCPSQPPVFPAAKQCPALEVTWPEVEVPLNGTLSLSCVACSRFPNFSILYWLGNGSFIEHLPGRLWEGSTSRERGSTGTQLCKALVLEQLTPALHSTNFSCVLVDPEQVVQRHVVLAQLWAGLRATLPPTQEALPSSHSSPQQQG

T2: Avi/HisMsIL18BPd (recombinant mouse IL-18BP with Avi and poly-His tags) (mouse, biotinylated with BirA on the Avi tag in some assays)
T2 chain: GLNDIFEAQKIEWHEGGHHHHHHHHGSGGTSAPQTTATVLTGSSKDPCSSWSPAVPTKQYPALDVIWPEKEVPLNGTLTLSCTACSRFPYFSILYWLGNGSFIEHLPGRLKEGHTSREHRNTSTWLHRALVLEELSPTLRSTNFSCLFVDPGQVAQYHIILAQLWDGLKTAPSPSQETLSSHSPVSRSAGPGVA

T3: His/Avi-CynoIL18BP (recombinant cynomolgus IL-18BP with His and Avi tags) (cynomolgus monkey)
T3 construct: also called cynomolgus IL-18BP-Avi-His
T3 chain: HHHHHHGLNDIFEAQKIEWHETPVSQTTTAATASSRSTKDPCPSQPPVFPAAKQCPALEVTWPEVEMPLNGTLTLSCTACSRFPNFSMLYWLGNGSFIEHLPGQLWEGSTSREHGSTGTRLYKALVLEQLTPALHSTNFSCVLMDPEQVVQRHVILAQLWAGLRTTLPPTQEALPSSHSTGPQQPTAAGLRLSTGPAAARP


How the values were obtained:
[1] = target: T1, Avi/His-HuIL18BPa (recombinant human …); test: cell-based or functional assay
[2] = target: T2, Avi/HisMsIL18BPd (recombinant mouse …); test: cell-based or functional assay
[3] = target: T1, Avi/His-HuIL18BPa (recombinant human …); test: SPR Biacore T200, IgG captured on Protein A/G
[4] = target: T3, His/Avi-CynoIL18BP (recombinant …); test: SPR Biacore T200, IgG captured on Protein A/G

| Binder | EC50 of IFNγ release, human PBMCs [1] [nM] | EC50 of IFNγ release, mouse splenocytes [2] [nM] | further results |
| --- | --- | --- | --- |
| anti-IL-18BP antibody variant BP-04.04 (antibody, V domains shown) VH: QVQLVQSGAEVKKPGASVKVSCKASGYTFTDYDMHWVRQAPGQGLEWMGIISTYYGDVSYAQKKQGRVTMTRDKSTSTVYMELSSLRSEDTAVYYCARSGTYNYGTRESHPLDYWGQGTLVTVSS VL: DIQMTQSPSSVSASVGDRVTITCRASDNVYSNLAWYQQKPGKAPKLLIYGAISLADGVPSRFSGSGSGTDFTLTISSLQPEDFATYYCQHFWGNPYTFGQGTKLEIK | 18.6 | 31.8 | – |
| anti-IL-18BP antibody variant BP-04.19 (antibody, V domains shown) VH: QVQLVQSGAEVKKPGASVKVSCKASGYTFTDYDMHWVRQAPGQGLEWMGIISTYYGVVSYAQKFQGRVTMTRDKSTSTVYMELSSLRSEDTAVYYCARSGTYYYGTRESHAFDYWGQGTLVTVSS VL: DIQMTQSPSSVSASVGDRVTITCRASDNVYSNLAWYQQKPGKAPKLLIYGAISLADGVPSRFSGSGSGTDFTLTISSLQPEDFATYYCQHFWGNPYTFGQGTKLEIK | 3.1 | 21.6 | – |
| anti-IL-18BP antibody variant BP-04.14 (antibody, V domains shown) VH: QVQLVQSGAEVKKPGASVKVSCKASGYTFTDYDMHWVRQAPGQGLEWMGIISTYYGDVSYAQKFQGRVTMTRDKSTSTVYMELSSLRSEDTAVYYCARSGTYNYGTRESHAFDYWGQGTLVTVSS VL: DIQMTQSPSSVSASVGDRVTITCRASDNVYSNLAWYQQKPGKAPKLLIYGAISLADGVPSRFSGSGSGTDFTLTISSLQPEDFATYYCQHFWGNPYTFGQGTKLEIK | 543 | 21.2 | – |
| anti-IL-18BP antibody variant BP-04.30 (antibody, V domains shown) VH: QVQLVQSGAEVKKPGASVKVSCKASGYTFTDYDMHWVRQAPGQGLEWMGIISTYYGDVSYAQKKQGRVTMTRDKSTSTVYMELSSLRSEDTAVYYCARSGTYYYGTRESHALDYWGQGTLVTVSS VL: DIQMTQSPSSVSASVGDRVTITCRASDNVYSNLAWYQQKPGKAPKLLIYGAISLADGVPSRFSGSGSGTDFTLTISSLQPEDFATYYCQHFWGNPYTFGQGTKLEIK | – | 7.43 | – |
| anti-IL-18BP antibody variant BP-04.21 (antibody, V domains shown) VH: QVQLVQSGAEVKKPGASVKVSCKASGYTFTDYDMHWVRQAPGQGLEWMGIISTYYGVVSYAQKFQGRVTMTRDKSTSTVYMELSSLRSEDTAVYYCARSGTYNYGTRESHALDYWGQGTLVTVSS VL: DIQMTQSPSSVSASVGDRVTITCRASDNVYSNLAWYQQKPGKAPKLLIYGAISLADGVPSRFSGSGSGTDFTLTISSLQPEDFATYYCQHFWGNPYTFGQGTKLEIK | 4.48 | 595 | – |
| anti-IL-18BP antibody variant BP-04.01 (antibody, V domains shown) VH: QVQLVQSGAEVKKPGASVKVSCKASGYTFTDYDMWVRQAPGQGLEWMGIISTYYGDVSYAIKFQGRVTMTRDKSTSTVYMELSSLRSEDTAVYYCARSGTYYYGTRESALDYWGQGTLVTVSS VL: DIQMTQSPSSVSASVGDRVTITCRASDNVYSNLAWYQQKPGKAPKLLIYGAISLADGVPSRFSGSGSGTDFTLTISSLQPEDFATYYCQHFWGNPYTFGQGTKLEIK | – | 1.67 | – |
| anti-IL-18BP antibody variant BP-04.11 (antibody, V domains shown) VH: QVQLVQSGAEVKKPGASVKVSCKASGYTFTDYDMHWVRQAPGQGLEWMGIYSTYYGVVSYAQKFQGRVTMTRDKSTSTVYMELSSLRSEDTAVYYCARSGTYNYGTRESHALDYWGQGTLVTVSS VL: DIQMTQSPSSVSASVGDRVTITCRASDNVYSNLAWYQQKPGKAPKLLIYGAISLADGVPSRFSGSGSGTDFTLTISSLQPEDFATYYCQHFWGNPYTFGQGTKLEIK | 3.94 | 3.61 | – |
| anti-IL-18BP antibody variant BP-04.10 (antibody, V domains shown) VH: QVQLVQSGAEVKKPGASVKVSCKASGYTFTDYDMHWVRQAPGQGLEWMGIYSTYYGVVSYAQKFQGRVTMTRDKSTSTVYMELSSLRSEDTAVYYCARSGTYYYGTRESHPLDYWGQGTLVTVSS VL: DIQMTQSPSSVSASVGDRVTITCRASDNVYSNLAWYQQKPGKAPKLLIYGAISLADGVPSRFSGSGSGTDFTLTISSLQPEDFATYYCQHFWGNPYTFGQGTKLEIK | 10.5 | 501 | – |
| anti-IL-18BP antibody variant BP-04.31 (antibody, V domains shown) VH: QVQLVQSGAEVKKPGASVKVSCKASGYTFTDYDMHWVRQAPGQGLEWMGIISTYYGVVSYAQKFQGRVTMTRDKSTSTVYMELSSLRSEDTAVYYCARSGTYYYGTRESHALDYWGQGTLVTVSS VL: DIQMTQSPSSVSASVGDRVTITCRASDNVYSNLAWYQQKPGKAPKLLIYGAISLADGVPSRFSGSGSGTDFTLTISSLQPEDFATYYCQHFWGNPYTFGQGTKLEIK | 6.3 | – | – |
| anti-IL-18BP antibody variant BP-04.13 (antibody, V domains shown) VH: QVQLVQSGAEVKKPGASVKVSCKASGYTFTDYDMHWVRQAPGQGLEWMGIISTYYGDVSYAQKFQGRVTMTRDKSTSTVYMELSSLRSEDTAVYYCARSGTYYYGTRESHPFDYWGQGTLVTVSS VL: DIQMTQSPSSVSASVGDRVTITCRASDNVYSNLAWYQQKPGKAPKLLIYGAISLADGVPSRFSGSGSGTDFTLTISSLQPEDFATYYCQHFWGNPYTFGQGTKLEIK | 16.6 | 41.4 | – |
| anti-IL-18BP antibody variant BP-04.16 (antibody, V domains shown) VH: QVQLVQSGAEVKKPGASVKVSCKASGYTFTDYDMHWVRQAPGQGLEWMGIISTYYGDVSYAQKKQGRVTMTRDKSTSTVYMELSSLRSEDTAVYYCARSGTYYYGTRESHAFDYWGQGTLVTVSS VL: DIQMTQSPSSVSASVGDRVTITCRASDNVYSNLAWYQQKPGKAPKLLIYGAISLADGVPSRFSGSGSGTDFTLTISSLQPEDFATYYCQHFWGNPYTFGQGTKLEIK | 3.34 | 220 | – |
| anti-IL-18BP antibody variant BP-04.17 (antibody, V domains shown) VH: QVQLVQSGAEVKKPGASVKVSCKASGYTFTDYDMHWVRQAPGQGLEWMGIISTYYGDVSYAQKKQGRVTMTRDKSTSTVYMELSSLRSEDTAVYYCARSGTYYYGTRESHPLDYWGQGTLVTVSS VL: DIQMTQSPSSVSASVGDRVTITCRASDNVYSNLAWYQQKPGKAPKLLIYGAISLADGVPSRFSGSGSGTDFTLTISSLQPEDFATYYCQHFWGNPYTFGQGTKLEIK | 8.89 | 14.6 | – |
| anti-IL-18BP antibody variant BP-04.12 (antibody, V domains shown) VH: QVQLVQSGAEVKKPGASVKVSCKASGYTFTDYDMHWVRQAPGQGLEWMGIYSTYYGVVSYAQKKQGRVTMTRDKSTSTVYMELSSLRSEDTAVYYCARSGTYYYGTRESHALDYWGQGTLVTVSS VL: DIQMTQSPSSVSASVGDRVTITCRASDNVYSNLAWYQQKPGKAPKLLIYGAISLADGVPSRFSGSGSGTDFTLTISSLQPEDFATYYCQHFWGNPYTFGQGTKLEIK | 31.9 | 0.865 | – |
| anti-IL-18BP antibody variant BP-04.18 (antibody, V domains shown) VH: QVQLVQSGAEVKKPGASVKVSCKASGYTFTDYDMHWVRQAPGQGLEWMGIISTYYGDVSYAQKKQGRVTMTRDKSTSTVYMELSSLRSEDTAVYYCARSGTYNYGTRESHALDYWGQGTLVTVSS VL: DIQMTQSPSSVSASVGDRVTITCRASDNVYSNLAWYQQKPGKAPKLLIYGAISLADGVPSRFSGSGSGTDFTLTISSLQPEDFATYYCQHFWGNPYTFGQGTKLEIK | 11.3 | 28.4 | – |
| anti-IL-18BP antibody variant BP-04.20 (antibody, V domains shown) VH: QVQLVQSGAEVKKPGASVKVSCKASGYTFTDYDMHWVRQAPGQGLEWMGIISTYYGVVSYAQKFQGRVTMTRDKSTSTVYMELSSLRSEDTAVYYCARSGTYYYGTRESHPLDYWGQGTLVTVSS VL: DIQMTQSPSSVSASVGDRVTITCRASDNVYSNLAWYQQKPGKAPKLLIYGAISLADGVPSRFSGSGSGTDFTLTISSLQPEDFATYYCQHFWGNPYTFGQGTKLEIK | 4.06 | 28.7 | – |
| anti-IL-18BP antibody variant BP-04.06 (antibody, V domains shown) VH: QVQLVQSGAEVKKPGASVKVSCKASGYTFTDYDMHWVRQAPGQGLEWMGIISTYYGVVSYAQKKQGRVTMTRDKSTSTVYMELSSLRSEDTAVYYCARSGTYYYGTRESHPLDYWGQGTLVTVSS VL: DIQMTQSPSSVSASVGDRVTITCRASDNVYSNLAWYQQKPGKAPKLLIYGAISLADGVPSRFSGSGSGTDFTLTISSLQPEDFATYYCQHFWGNPYTFGQGTKLEIK | 1.32 | 67.6 | – |
| anti-IL-18BP antibody variant BP-04.24 (antibody, V domains shown) VH: QVQLVQSGAEVKKPGASVKVSCKASGYTFTDYDMHWVRQAPGQGLEWMGIYSTYYGDVSYAQKFQGRVTMTRDKSTSTVYMELSSLRSEDTAVYYCARSGTYYYGTRESHPLDYWGQGTLVTVSS VL: DIQMTQSPSSVSASVGDRVTITCRASDNVYSNLAWYQQKPGKAPKLLIYGAISLADGVPSRFSGSGSGTDFTLTISSLQPEDFATYYCQHFWGNPYTFGQGTKLEIK | 4.84 | – | Kd [3]: 16 nM; koff [3]: 0.0047 s⁻¹; kon [3]: 290000 M⁻¹ s⁻¹; Kd [4]: 29 nM; koff [4]: 0.0059 s⁻¹; kon [4]: 200000 M⁻¹ s⁻¹ |
